# Data taken from publication PMC2924879.
# pKd: −log10 of the molar value. Like-named read-outs stand apart in the source and are kept apart here.
# Key:
# Assay in all cases: AUC
# [1] = target: vMIP-II L13F (human herpesvirus-8)
# [2] = target: vMIP-II L13F (human herpesvirus-8); remark: listed apart in the source
# [3] = target: vMIP-II L13F (human herpesvirus-8); remark: listed apart in the source
substance,measurement,setting,value
vMIP-II L13F (natural protein),pKd,[1],4.39
same,stoichiometry N,[1],2
same,pKd,[2],3.89
same,pKd,[3],6.13
